{"source": "paper PMC12421802", "molecular_target": "mutant MAP7D1 p.R201W (MAP7D1:c.601C>T), His/Myc-tagged (human) (UniProt Q3KQU3)", "sequence (Q3KQU3 whole entry R201W)": "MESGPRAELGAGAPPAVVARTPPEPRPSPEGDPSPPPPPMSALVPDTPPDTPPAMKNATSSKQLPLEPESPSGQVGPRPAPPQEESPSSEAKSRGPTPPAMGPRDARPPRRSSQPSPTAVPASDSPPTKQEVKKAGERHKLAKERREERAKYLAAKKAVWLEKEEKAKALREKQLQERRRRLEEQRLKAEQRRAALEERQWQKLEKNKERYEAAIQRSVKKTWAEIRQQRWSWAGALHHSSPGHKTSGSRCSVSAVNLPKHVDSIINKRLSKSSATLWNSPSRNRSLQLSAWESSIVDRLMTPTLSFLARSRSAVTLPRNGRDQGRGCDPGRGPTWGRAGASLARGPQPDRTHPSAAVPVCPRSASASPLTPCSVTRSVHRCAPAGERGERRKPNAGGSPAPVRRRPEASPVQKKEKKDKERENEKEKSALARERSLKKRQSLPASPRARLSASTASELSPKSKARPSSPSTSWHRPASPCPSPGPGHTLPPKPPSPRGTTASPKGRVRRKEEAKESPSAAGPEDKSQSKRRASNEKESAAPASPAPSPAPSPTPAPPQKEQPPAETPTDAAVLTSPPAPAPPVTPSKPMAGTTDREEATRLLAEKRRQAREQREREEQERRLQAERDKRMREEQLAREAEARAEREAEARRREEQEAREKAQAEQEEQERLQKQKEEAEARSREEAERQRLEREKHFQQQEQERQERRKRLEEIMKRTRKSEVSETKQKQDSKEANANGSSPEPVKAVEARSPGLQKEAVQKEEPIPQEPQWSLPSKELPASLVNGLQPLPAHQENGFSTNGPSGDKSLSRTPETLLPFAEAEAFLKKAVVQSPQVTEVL", "assay": "pull-down; 600 µg lysate of HEK293T cells overexpressing His/Myc-MAP7D1 (wt or mutant) incubated with MagneHis Ni particles in 100 mM HEPES, 10 mM imidazole, 500 mM NaCl, 4°C, 4 h; eluted with 500 mM imidazole; western blot with Myc-tag and β-tubulin antibodies; β-tubulin normalised to precipitated Myc-MAP7D1", "data": [{"substance": "β-tubulin (tubulin of microtubules) (from UniProt P07437 1-444) (natural protein)", "values": [{"measurement": "decrease of co-precipitated tubulin relative to wild-type MAP7D1", "value": 40, "unit": "%"}]}]}
